Source: the Human Domainome abundance scans (Beltran et al. 2025)
± gives the uncertainty stated by the source.

B1: Membrane-associated guanylate kinase, WW and PDZ domain-containing protein 3, residues 287 to 329; numbered along this chain, Q5TCQ9 (parent)
chain: MRDETLEPLPKNWEMAYTDTGMIYFIDHNTKTTTWLDPRLCKK

Variants of: B1
Assay: abundance fitness (aPCA) (normalised: wild type 0, dead -1); higher = more abundant; growth selection in yeast, the domain comes from the species named
Conditions: Homo sapiens

Row | Variant | abundance fitness
1 | L6V | -0.024 ± 0.031
2 | L6H | -0.249 ± 0.07
3 | L6R | -0.026 ± 0.032
4 | I23F | -0.162 ± 0.098
5 | I23P | -0.001 ± 0.064
6 | I23Q | 0.042 ± 0.044
7 | I23M | -0.006 ± 0.047
8 | I23C | 0.002 ± 0.034
9 | I23V | 0.03 ± 0.035
10 | I23A | 0.053 ± 0.032
11 | I23T | -0.006 ± 0.042
12 | I23N | -0.12 ± 0.058
13 | I23W | -0.277 ± 0.05
14 | I23L | -0.01 ± 0.029
15 | I23S | -0.068 ± 0.04
16 | I23D | -0.32 ± 0.1
17 | I23E | 0.028 ± 0.034
18 | I23G | -0.087 ± 0.028
19 | T18R | -0.7 ± 0.035
20 | T18M | -0.335 ± 0.044
21 | T18L | -0.471 ± 0.063
22 | T18S | -0.128 ± 0.044
23 | T18C | -0.223 ± 0.097
24 | T18A | -0.151 ± 0.035

Row | Variant | abundance fitness
25 | T18W | -0.676 ± 0.054
26 | T18E | -0.389 ± 0.038
27 | T18N | -0.391 ± 0.46
28 | T18P | -1.03 ± 0.13
29 | T18Q | -0.624 ± 0.13
30 | T18G | -0.244 ± 0.029
31 | T18K | -0.539 ± 0.23
32 | K11H | -0.08 ± 0.037
33 | K11D | -0.092 ± 0.086
34 | K11M | -0.161 ± 0.045
35 | K11C | -0.137 ± 0.039
36 | K11E | 0.024 ± 0.033
37 | K11R | -0.049 ± 0.03
38 | K11A | -0.033 ± 0.039
39 | K11P | 0.007 ± 0.049
40 | K11L | -0.08 ± 0.038
41 | K11Q | -0.041 ± 0.044
42 | K11V | -0.109 ± 0.037
43 | K11T | -0.068 ± 0.043
44 | K11I | -0.271 ± 0.069
45 | K11F | -0.21 ± 0.11
46 | K11N | -0.118 ± 0.093
47 | K11S | -0.068 ± 0.034
48 | M15F | -0.189 ± 0.036

Row | Variant | abundance fitness
49 | M15Q | -0.007 ± 0.035
50 | M15I | 0.036 ± 0.24
51 | M15G | -0.334 ± 0.034
52 | M15S | -0.047 ± 0.042
53 | M15A | -0.043 ± 0.038
54 | M15H | -0.156 ± 0.062
55 | M15D | -0.379 ± 0.041
56 | M15E | -0.062 ± 0.051
57 | M15P | -0.11 ± 0.079
58 | M15R | -0.013 ± 0.034
59 | M15V | -0.093 ± 0.035
60 | M15L | -0.066 ± 0.035
61 | M15K | -0.037 ± 0.05
62 | M15W | -0.283 ± 0.053
63 | M15Y | -0.186 ± 0.051
64 | M15T | -0.039 ± 0.051
65 | M15C | -0.097 ± 0.053
66 | F25L | -0.82 ± 0.056
67 | F25M | -0.721 ± 0.43
68 | F25R | -0.692 ± 0.035
69 | F25E | -0.565 ± 0.049
70 | F25Q | -0.634 ± 0.05
71 | F25G | -0.57 ± 0.03
72 | F25H | -0.421 ± 0.1

Row | Variant | abundance fitness
73 | F25T | -0.662 ± 0.058
74 | F25P | -0.679 ± 0.041
75 | F25C | -0.774 ± 0.049
76 | F25D | -0.516 ± 0.042
77 | F25K | -0.68 ± 0.086
78 | F25V | -0.989 ± 0.052
79 | F25I | -0.557 ± 0.14
80 | F25S | -0.616 ± 0.057
81 | E7V | -0.09 ± 0.04
82 | E7L | -0.115 ± 0.035
83 | E7G | 0.013 ± 0.032
84 | E7M | -0.145 ± 0.038
85 | E7R | -0.084 ± 0.033
86 | E7P | 0.014 ± 0.049
87 | E7I | -0.218 ± 0.054
88 | E7N | -0.238 ± 0.069
89 | E7C | -0.324 ± 0.067
90 | E7F | -0.327 ± 0.045
91 | E7A | -0.076 ± 0.038
92 | E7D | -0.113 ± 0.078
93 | E7W | -0.24 ± 0.044
94 | E7Q | -0.04 ± 0.041
95 | E7S | -0.049 ± 0.044
96 | E7K | -0.101 ± 0.045

Row | Variant | abundance fitness
97 | P10A | -0.392 ± 0.038
98 | P10L | -0.613 ± 0.046
99 | P10I | -0.854 ± 0.12
100 | P10C | -0.54 ± 0.11
101 | P10W | -0.837 ± 0.058
102 | P10H | -0.677 ± 0.087
103 | P10S | -0.496 ± 0.037
104 | P10T | -0.462 ± 0.053
105 | P10F | -0.831 ± 0.071
106 | P10Q | -0.505 ± 0.048
107 | P10E | -0.456 ± 0.057
108 | P10V | -0.816 ± 0.089
109 | P10R | -0.685 ± 0.034
110 | P10D | -0.527 ± 0.13
111 | N12P | -0.383 ± 0.054
112 | N12F | -0.198 ± 0.049
113 | N12R | -0.215 ± 0.033
114 | N12A | -0.191 ± 0.034
115 | N12M | -0.229 ± 0.06
116 | N12V | -0.89 ± 0.071
117 | N12G | 0.018 ± 0.032
118 | N12D | -0.081 ± 0.039
119 | N12C | -0.257 ± 0.14
120 | N12S | -0.213 ± 0.038

Row | Variant | abundance fitness
121 | N12W | -0.412 ± 0.045
122 | N12E | -0.22 ± 0.049
123 | N12L | -0.247 ± 0.035
124 | N12T | -0.438 ± 0.073
125 | N12H | -0.185 ± 0.08
126 | N12Q | -0.237 ± 0.046
127 | N12K | -0.155 ± 0.044
128 | N12I | -0.96 ± 0.11
129 | A16H | -0.514 ± 0.092
130 | A16G | -0.149 ± 0.031
131 | A16D | -0.257 ± 0.042
132 | A16P | -0.914 ± 0.063
133 | A16Q | -0.15 ± 0.039
134 | A16V | -0.193 ± 0.042
135 | A16M | -0.36 ± 0.058
136 | A16K | -0.067 ± 0.055
137 | A16E | -0.278 ± 0.04
138 | A16N | -0.318 ± 0.086
139 | A16R | -0.076 ± 0.032
140 | A16L | -0.297 ± 0.04
141 | E4P | -0.095 ± 0.045
142 | E4D | -0.115 ± 0.055
143 | E4L | -0.09 ± 0.04
144 | E4G | -0.113 ± 0.03

Row | Variant | abundance fitness
145 | E4Y | -0.319 ± 0.11
146 | E4F | -0.097 ± 0.068
147 | E4A | -0.09 ± 0.038
148 | E4H | -0.174 ± 0.063
149 | E4S | -0.043 ± 0.045
150 | E4C | -0.062 ± 0.038
151 | E4M | -0.11 ± 0.043
152 | E4W | -0.515 ± 0.057
153 | E4R | -0.091 ± 0.03
154 | E4K | -0.107 ± 0.065
155 | E4Q | -0.04 ± 0.035
156 | T20N | -0.132 ± 0.27
157 | T20D | -0.054 ± 0.07
158 | T20P | -0.48 ± 0.05
159 | T20G | -0.025 ± 0.028
160 | T20W | -0.328 ± 0.054
161 | T20Y | -0.256 ± 0.067
162 | T20M | -0.153 ± 0.042
163 | T20I | -0.24 ± 0.053
164 | T20C | -0.077 ± 0.04
165 | T20H | -0.345 ± 0.22
166 | T20E | 0.017 ± 0.037
167 | T20S | -0.023 ± 0.053
